Measurements taken from patent US20230312709A1 (GUANGDONG FEIPENG PHARMACEUTICAL, published 2023).
Where two headings read alike, the source gives them in different places.

Tests used:
[1] = biological target: T1, monkey CD47 on CHO-cynoCD47 cells (monkey); experiment: flow cytometry on CHO-cynoCD47 cells, MFI curve
T1 construct: whole, on cells; Cell line named CHO-cynoCD47; the text calls the species 'monkey'
Procedure: Then, the cells were washed at least twice, a PE Goat anti human IgG Fc (1:500× dilution) fluorescent secondary antibody was prepared with a FCM buffer (1×PBS+3% BSA), added to a corresponding 96-well plate according to 100 μL/well, and incubated in a refrigerator at 4° C. for 30 min. The 96-well plate was taken out, and centrifuged at 250 g for 5 min, after a supernatant was carefully removed, the FCM buffer was added at 200 μL/well, and it was centrifuged again at 250 g for 5 min, the supernatant was carefully removed. The cells were washed at least twice and resuspended with 1×PBS at 100 μL/well, and analyzed by the flow cytometry, and a concentration-dependent curve was fitted with GraphPad according to MFI thereof.

[2] = biological target: T2, human CD47 on CCRF-CEM cells (human, UniProt Q08722 19-323); experiment: flow cytometry on CCRF-CEM cells, MFI curve
T2 construct: whole, on cells
Procedure: The specific steps were as follows.
A cell line CCRF-CEM (Cell Bank of Chinese Academy of Sciences, Shanghai) expressing human CD47 was used, which belongs to human acute lymphoblastic leukemia T lymphocytes. […] Then, the cells were washed at least twice, a PE Goat anti human IgG Fc (1:500× dilution) fluorescent secondary antibody was prepared with a FCM buffer (1×PBS+3% BSA), added to a corresponding 96-well plate according to 100 μL/well, and incubated in a refrigerator at 4° C. for 30 min. The 96-well plate was taken out, and centrifuged at 250 g for 5 min, after a supernatant was carefully removed, the FCM buffer was added at 200 μL/well, and it was centrifuged again at 250 g for 5 min, the supernatant was carefully removed. The cells were washed at least twice and resuspended using 100 μL/well 1×PBS, and analyzed by the flow cytometry, and a concentration-dependent curve was fitted with GraphPad according to the mean fluorescence intensity (MFI) thereof.

[3] = biological target: T2, human CD47 on CCRF-CEM cells; experiment: flow cytometry competition on CCRF-CEM cells; blocked ligand hSIRPα-mFC, detected with PE goat anti-mouse IgG Fc
[4] = biological target: T3, hCD47-ECD-HIS recombinant protein (human, UniProt Q08722 19-139, limits assumed); experiment: BLI (ForteBio), antibody on AHC sensor, 100 nM CD47 antigen, 1:1 model
T3 construct: extracellular domain; also called hCD47 antigen; CD47 antigen
Procedure: An equilibrium dissociation constant (KD) of the antibody of the present application binding to human CD47 (hCD47) was determined by a biofilm interferometry (ForteBio). […] Kinetic analysis was performed with a 1:1 binding model.

[5] = biological target: T2, human CD47 on CCRF-CEM cells; experiment: flow cytometry competition on CCRF-CEM cells; blocked ligand hSIRPα-mFC, detected with PE goat anti-mouse IgG Fc; remark: listed apart in the source

Binder	EC50 [1]	EC50 [2]	IC50 (read off the curve) [3]	Kd [4]	koff [4]	kon [4]	IC50 (read off the curve) [5]
7A11H32 (antibody, V domains shown, also called CD47 antibody) VH: QVQLVQSGAEVKKPGSSVKVSCKASGSSFTSNWMNWVRQAPGQGLEWIGMIHPSDSETRLNQKFKDRVTITADKSTSTAYMELSSLRSEDTAVYYCARGTTVVDAFAYWGQGTTVTVSS VL: DIQMTQSPSSLSASVGDRVTMTCKSSQSLLNSRTRKNYLAWYQQKPGKAPKLLIYWASTRESGVPSRFSGSGSGTDFTLTISSLQPEDFATYYCKQSYNLRTFGGGTKLEIK	17.1 nM	0.717 nM	~2 nM	–	–	–	–
7A11H35 (antibody, V domains shown, also called CD47 antibody) VH: QVQLVQSGAEVKKPGSSVKVSCKASGSSFTSNWMNWVRQAPGQGLEWIGMIHPSDSETRLNQKFKDRVTITADKSTSTAYMELSSLRSEDTAVYYCARGTTVVDAFAYWGQGTTVTVSS VL: EIVMTQSPPTLSLSPGERVTMSCKSSQSLLNSRTRKNYLAWYQQKPGQAPRLLIYWASTRESGIPARFSGSGSGTDFTLTISSLQPEDFAVYYCKQSYNLRTFGGGTKLEIK	4.38 nM	0.862 nM	–	0.881 nM	–	–	–
7A11H22 (antibody, V domains shown, also called CD47 antibody) VH: QVQLVQSGAEVKKPGASVKVSCKASGSSFTSNWMNWVRQAPGQGLEWIGMIHPSDSETRLNQKFKDRATLTVDKSTSTAYMELSSLRSEDTAVYYCARGTTVVDAFAYWGQGTTVTVSS VL: DIQMTQSPSSLSASVGDRVTMTCKSSQSLLNSRTRKNYLAWYQQKPGKAPKLLIYWASTRESGVPSRFSGSGSGTDFTLTISSLQPEDFATYYCKQSYNLRTFGGGTKLEIK	8.55 nM	0.82 nM	~2 nM	0.74 nM	–	–	–
7A11H14 (antibody, V domains shown, also called CD47 antibody) VH: QVQLVQPGAEVKKPGASVKLSCKASGSSFTSNWMNWVRQAPGQGLEWIGMIHPSDSETRLNQKFKDRATLTVDKSTSTAYMELSSPRSEDTAVYYCARGTTVVDAFAYWGQGTTVTVSS VL: DIVMTQSPDSLAVSLGERATMNCKSSQSLLNTRTRKNYLAWYQQKPGQPPKLLIYWASTRESGVPDRFSGSGSGTDFTLTISSLQAEDVAVYYCKQSYNLRTFGGGTKLEIK	4.96 nM	0.933 nM	–	0.562 nM	–	–	–
7A11H34 (antibody, V domains shown, also called CD47 antibody) VH: QVQLVQSGAEVKKPGSSVKVSCKASGSSFTSNWMNWVRQAPGQGLEWIGMIHPSDSETRLNQKFKDRVTITADKSTSTAYMELSSLRSEDTAVYYCARGTTVVDAFAYWGQGTTVTVSS VL: DIVMTQSPDSLAVSLGERATMNCKSSQSLLNTRTRKNYLAWYQQKPGQPPKLLIYWASTRESGVPDRFSGSGSGTDFTLTISSLQAEDVAVYYCKQSYNLRTFGGGTKLEIK	8.61 nM	1.2 nM	–	–	–	–	–

The remaining binders from weak to strong by EC50 [1], led by results:

EC50 [1]	EC50 [2]	IC50 (read off the curve) [3]	Kd [4]	koff [4]	kon [4]	IC50 (read off the curve) [5]	Binder
8.93 nM	0.822 nM	~2 nM	0.59 nM	–	–	–	7A11H11 (antibody, V domains shown, also called CD47 antibody) VH: QVQLVQPGAEVKKPGASVKLSCKASGSSFTSNWMNWVRQAPGQGLEWIGMIHPSDSETRLNQKFKDRATLTVDKSTSTAYMELSSPRSEDTAVYYCARGTTVVDAFAYWGQGTTVTVSS VL: DIVMTQSPDSLAVSLGERATMNCKSSQSLLNSRTRKNYLAWYQQKPGQPPKLLIYWASTRESGVPDRFSGSGSGTDFTLTISSLQAEDVAVYYCKQSYNLRTFGGGTKLEIK
7.35 nM	0.716 nM	~0.9 nM	0.459 nM	–	–	–	7A11H12 (antibody, V domains shown, also called CD47 antibody) VH: QVQLVQPGAEVKKPGASVKLSCKASGSSFTSNWMNWVRQAPGQGLEWIGMIHPSDSETRLNQKFKDRATLTVDKSTSTAYMELSSPRSEDTAVYYCARGTTVVDAFAYWGQGTTVTVSS VL: DIQMTQSPSSLSASVGDRVTMTCKSSQSLLNSRTRKNYLAWYQQKPGKAPKLLIYWASTRESGVPSRFSGSGSGTDFTLTISSLQPEDFATYYCKQSYNLRTFGGGTKLEIK
7.27 nM	0.723 nM	–	0.212 nM	0.000313 s⁻¹	1.48e+06 M⁻¹ s⁻¹	~2 nM	7A11H15 (antibody, V domains shown, also called CD47 antibody) VH: QVQLVQPGAEVKKPGASVKLSCKASGSSFTSNWMNWVRQAPGQGLEWIGMIHPSDSETRLNQKFKDRATLTVDKSTSTAYMELSSPRSEDTAVYYCARGTTVVDAFAYWGQGTTVTVSS VL: EIVMTQSPPTLSLSPGERVTMSCKSSQSLLNSRTRKNYLAWYQQKPGQAPRLLIYWASTRESGIPARFSGSGSGTDFTLTISSLQPEDFAVYYCKQSYNLRTFGGGTKLEIK
5.12 nM	–	–	–	–	–	–	Hu5F9-G4 (antibody, V domains shown) VH: QVQLVQSGAEVKKPGASVKVSCKASGYTFTNYNMHWVRQAPGQRLEWMGTIYPGNDDTSYNQKFKDRVTITADTSASTAYMELSSLRSEDTAVYYCARGGYRAMDYWGQGTLVTVSS VL: DIVMTQSPLSLPVTPGEPASISCRSSQSIVYSNGNTYLGWYLQKPGQSPQLLIYKVSNRFSGVPDRFSGSGSGTDFTLKISRVEAEDVGVYYCFQGSHVPYTFGQGTKLEIKR
5 nM	0.727 nM	~2 nM	0.309 nM	–	–	–	7A11H42 (antibody, V domains shown, also called CD47 antibody) VH: QVQLVQSGAEVKKPGSSVKVSCKASGSSFTSNWMNWVRQAPGQGLEWIGMIHPSDSETRLNQKFQGRVTITADKSTSTAYMELSSLRSEDTAVYYCARGTTVVDAFAYWGQGTTVTVSS VL: DIQMTQSPSSLSASVGDRVTMTCKSSQSLLNSRTRKNYLAWYQQKPGKAPKLLIYWASTRESGVPSRFSGSGSGTDFTLTISSLQPEDFATYYCKQSYNLRTFGGGTKLEIK
4.85 nM	0.76 nM	–	0.36 nM	–	–	–	7A11H33 (antibody, V domains shown, also called CD47 antibody) VH: QVQLVQSGAEVKKPGSSVKVSCKASGSSFTSNWMNWVRQAPGQGLEWIGMIHPSDSETRLNQKFKDRVTITADKSTSTAYMELSSLRSEDTAVYYCARGTTVVDAFAYWGQGTTVTVSS VL: DIQMTQSPSSLSASVGDRVTMTCKSSQSLLNTRTRKNYLAWYQQKPGKAPKLLIYWASTRESGVPSRFSGSGSGTDFTLTISSLQPEDFATYYCKQSYNLRTFGGGTKLEIK
4.62 nM	1.21 nM	–	–	–	–	–	7A11H55 (antibody, V domains shown, also called CD47 antibody) VH: QVQLVQSGAEVKKPGSSVKVSCKASGGTFTSNWMNWVRQAPGQGLEWIGMIHPSDSETRLNQKFQGRVTITADKSTSTAYMELSSLRSEDTAVYYCARGTTVVDAFAYWGQGTTVTVSS VL: EIVMTQSPPTLSLSPGERVTMSCKSSQSLLNSRTRKNYLAWYQQKPGQAPRLLIYWASTRESGIPARFSGSGSGTDFTLTISSLQPEDFAVYYCKQSYNLRTFGGGTKLEIK
4.51 nM	0.915 nM	–	–	–	–	–	7A11H52 (antibody, V domains shown, also called CD47 antibody) VH: QVQLVQSGAEVKKPGSSVKVSCKASGGTFTSNWMNWVRQAPGQGLEWIGMIHPSDSETRLNQKFQGRVTITADKSTSTAYMELSSLRSEDTAVYYCARGTTVVDAFAYWGQGTTVTVSS VL: DIQMTQSPSSLSASVGDRVTMTCKSSQSLLNSRTRKNYLAWYQQKPGKAPKLLIYWASTRESGVPSRFSGSGSGTDFTLTISSLQPEDFATYYCKQSYNLRTFGGGTKLEIK
